Measurements reported in paper PMC4635490, “VP22 core domain from Herpes simplex virus 1 reveals a surprising structural conservation in both the Alpha- and Gammaherpesvirinae subfamilies” (The Journal of General Virology, 2015).

Biological target: the molecule itself
Assay: SEC-MALS; Superdex 200 5/150 GL, 20 mM HEPES pH 7.5, 300 mM NaCl, 10 % glycerol, 2 mM TCEP; 20 µl of 6 mg/ml VP22core injected, 0.3 ml/min

B1: VP22 core domain (conserved C-terminal domain) from Herpes simplex virus 1, residues 174-281 (domain or fragment)
chain: RKLHFSTAPPNPDAPWTPRVAGFNKRVFCAAVGRLAAMHARMAAVQLWDMSRPRTDEDLNELLGITTIRVTVCEGKNLLQRANELVNPDVVQDVDAATATRGRSAASR
notes: VP22 tegument protein of Herpes simplex virus 1 (Human herpesvirus 1), GenBank BAE87004.1, residues 174-281; electron density seen for residues 174-260 plus three amino acids of the N-terminal tag; The tag was not removed: the monomer mass of 14 551 g/mol includes the purification tag and the TEV site; source: bacterial cells, purified (HisTrap HP, Superdex 75 size exclusion); not shown: His6, …
stoichiometry N: 2
